{"source": "patent US20240368307A1", "about": "“METHODS AND COMPOSITIONS FOR TREATING SEPSIS” (THE UNIVERSITY OF CHICAGO, priority 2023, published 2024)", "molecules": {"B1": {"name": "rPLA2G5: human recombinant PLA2G5 (Cayman chemical, 10009563) (protein, UniProt P39877 21-138, looked up)", "Phospholipase A2 group V": "GLLDLKSMIEKVTGKNALTNYGFYGCYCGWGGRGTPKDGTDWCCWAHDHCYGRLEEKGCNIRTQSYKYRFAWGVVTCEPGPFCHVNLCACDRKLVYCLKRNLRSYNPQYQYFPNILCS"}}, "key": {"[1]": {"target": "T1, human recombinant PLA2G5 (Homo sapiens, UniProt P39877)", "T1 construct": "purchased Cayman chemical 10009563", "T1 sequence (P39877 21-138)": "B1 Phospholipase A2 group V", "test": "In vitro erythrocyte lysis assay with varespladib", "assay_type": "cell-based", "conditions": "100 nM of varespladib; PS-exposing erythrocytes", "protocol": "(§1) The inventors hypothesized that PLA2G5 impacted red blood cells because of the impact of PLA2G5 blockade on splenic red pulp macrophages and iron stores. […] Next, the inventors examined the effect of osmotic pressure on the hemolysis induced by rPLA2G5.\nIn vitro erythrocyte lysis assay. Mouse whole blood was spun at 1,000 g, the plasma and buffy coat were removed, and red blood cells were washed three times in Hepes-buffered saline. Subsequently, a portion of erythrocytes was incubated with 100 μM CaCl2) in Hepes-buffered saline for 3 min at 37° C. Calcium ionophore (Cayman Chemical, A23187) was added to a final concentration of 4 μM, and the cells were further incubated for 10 min at 37° C. to induce membrane phospholipid (PS) scrambling. After that, 2 mM EDTA was added to stop the reaction. […] Hemolysis was measured by determining the amount of oxyhemoglobin in the supernatant of erythrocyte suspensions after centrifugation at 4,000 g. The absorbance at 414 nm in the supernatant of erythrocyte suspensions was measured using Nanodrop (Thermoscientific) and compared to that of a hemolyzed aliquot of the same erythrocyte suspension treated with Triton X-100."}, "[2]": {"system": "erythrocytes", "test": "Lipidomics analysis of erythrocytes incubated with rPLA2G5", "assay_type": "cell-based, mouse", "conditions": "100 ng/mL rPLA2G5; 1 h at 37° C.", "text": "To elucidate how PLA2G5 affected RBC membranes at the molecular level during hemolysis, the inventors performed lipidomics on erythrocytes in the presence or absence of rPLA2G5 in vitro.\nLipidomics analysis of erythrocytes. The procedures for lipidomics analysis using high-performance liquid chromatography coupled with electrospray tandem mass spectrometry (LC-ESI-MS/MS) were described above. Mouse whole blood was spun at 1,000 g, the plasma and buffy coat were removed, and red blood cells were washed three times in Hepes-buffered saline. Subsequently, a portion of erythrocytes was incubated with 100 μM CaCl2) in Hepes-buffered saline for 3 min at 37° C. Calcium ionophore (Cayman Chemical, A23187) was added to a final concentration of 4 μM, and the cells were further incubated for 10 min at 37° C. to induce membrane phospholipid (PS) scrambling. After that, 2 mM EDTA was added to stop the reaction. PS-exposing or untreated erythrocytes (10^9 cells/mL) were incubated with or without 100 ng/mL of human recombinant PLA2G5 (Cayman chemical, 10009563) for 1 h at 37° C. in Hepes-buffered saline with 2 mM of calcium for the activity of PLA2G5. The samples were kept at −80° C. until the following procedures."}, "[3]": {"test": "Recombinant PLA2G5 injection in naive mice", "assay_type": "in vivo, mouse", "conditions": "10 μg rPLA2G5 intravenously", "text": "Next, the inventors hypothesized that PLA2G5 impacted red blood cells in vivo during sepsis. To test this hypothesis, the inventors measured the plasma levels of heme, a degradation product of cell-free hemoglobin, in Pla2g5^+/+ and Pla2g5^−/− mice challenged with LPS. The inventors found a significant decrease in the plasma levels of heme in Pla2g5-deficient mice compared to wild type (FIG. 7A). […] The inventors next asked if PLA2G5 would be sufficient to induce intravascular hemolysis in vivo by injecting rPLA2G5 in naïve mice.\nRecombinant PLA2G5 injections. C57BL/6J mice were injected intravenously with 10 μg of recombinant PLA2G5 (Cayman chemical, 10009563).\nBlood analysis. Mouse whole blood was harvested by cardiac puncture and plasma and serum were isolated using lithium heparin coated Microtainer blood collection tubes (BD 365965) and Microtainer blood collection tubes (BD 365978), respectively. For flow cytometric, bead-based immunoassays, serum was diluted and processed using the LEGENDplex Mouse Macrophage/Microglia Panel (BioLegend 740846) kit. Data were acquired on the NovoCyte flow cytometer (Acea Biosciences/Agilent) and analyzed using the LEGNEDplex software v8 (BioLegend). To measure tissue injury marker levels in sera or plasma, samples were processed by In Vivo Animal Core, University of Michigan, with the following kits for BUN (BioAssay Systems DIUR-100), ALT (Cayman Chemical 700260), and troponin-I (Life Diagnostics CTNI-1-HS) levels according to the manufacturer's instructions, or with a Vet Axcel blood chemistry analyser (Alfa Wasserman). Total plasma heme was measured with the 3,3′,5,5′ tetramethylbenzidine (TMB) peroxidase assay and oxyhemoglobin with a Nanodrop One (Thermoscientific) instrument."}, "[4]": {"system": "mouse RBCs", "test": "In vitro erythrocyte lysis assay with recombinant PLA2G5", "assay_type": "cell-based", "protocol": "as §1\nIn vitro erythrocyte lysis assay. Mouse whole blood was spun at 1,000 g, the plasma and buffy coat were removed, and red blood cells were washed three times in Hepes-buffered saline. Subsequently, a portion of erythrocytes was incubated with 100 μM CaCl2) in Hepes-buffered saline for 3 min at 37° C. Calcium ionophore (Cayman Chemical, A23187) was added to a final concentration of 4 μM, and the cells were further incubated for 10 min at 37° C. to induce membrane phospholipid (PS) scrambling. After that, 2 mM EDTA was added to stop the reaction. In the presence or absence of 100 nM of varespladib, hypertonic solution (100 mM NaCl), or hypotonic solution (water-diluted Hepes-buffered saline), PS-exposing or untreated erythrocytes (10^9 cells/mL) were incubated with 5, 50, or 500 ng/mL of human recombinant PLA2G5 (Cayman chemical, 10009563) for 1 h at 37° C. in Hepes-buffered saline with 2 mM of calcium for the activity of PLA2G5. Hemolysis was measured by determining the amount of oxyhemoglobin in the supernatant of erythrocyte suspensions after centrifugation at 4,000 g. The absorbance at 414 nm in the supernatant of erythrocyte suspensions was measured using Nanodrop (Thermoscientific) and compared to that of a hemolyzed aliquot of the same erythrocyte suspension treated with Triton X-100."}}, "data": [{"molecule": "CCc1c(C(=O)C(N)=O)c2c(OCC(=O)O)cccc2n1Cc1ccccc1", "note": "[varespladib]", "values": [{"measurement": "effect on the hemolytic effects of rPLA2G5", "setting": "[1]", "value": "the hemolytic effects of rPLA2G5 were dependent on its phospholipase activity"}]}, {"molecule": "B1", "values": [{"measurement": "lipids released from RBC membranes", "setting": "[2]", "value": "release of lysophospholipids with saturation and lower degrees of unsaturation and fatty acids"}, {"measurement": "plasma level of heme", "setting": "[3]", "value": "sufficient to elevate"}, {"measurement": "plasma level of oxyhemoglobin", "setting": "[3]", "value": "sufficient to elevate"}, {"measurement": "serum level of ALT", "setting": "[3]", "value": "sufficient to elevate"}, {"measurement": "serum level of BUN", "setting": "[3]", "value": "sufficient to elevate"}, {"measurement": "RBC lysis (cell-free oxyhemoglobin)", "setting": "[4]; RBCs treated with Ca2+ and calcium ionophore, 5, 50, or 500 ng/mL rPLA2G5, 1 h at 37° C.", "value": "increased RBC lysis in a dose-dependent manner"}, {"measurement": "hemolysis mediated by rPLA2G5 in hypertonic conditions", "setting": "[4]; hypertonic solution (100 mM NaCl)", "value": "inhibited hemolysis"}, {"measurement": "hemolysis mediated by rPLA2G5 in hypotonic conditions", "setting": "[4]; hypotonic solution (water-diluted Hepes-buffered saline)", "value": "promoted hemolysis"}]}]}
